Measured values reported in PMC9482650, “Quantitative fragmentomics allow affinity mapping of interactomes” (Nature Communications, 2022).

T1: APBA2_1, Q99767
T1 sequence (Q99767 563-664, limits assumed, looked up): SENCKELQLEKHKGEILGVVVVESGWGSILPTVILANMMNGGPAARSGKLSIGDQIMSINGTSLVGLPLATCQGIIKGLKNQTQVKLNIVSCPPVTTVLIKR

T2: DFNB31_3, Q9P202
T2 sequence (Q9P202 811-907, limits assumed, looked up): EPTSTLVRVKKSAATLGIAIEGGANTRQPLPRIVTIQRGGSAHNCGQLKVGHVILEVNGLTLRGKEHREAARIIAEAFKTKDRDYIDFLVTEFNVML

T3: LNX2_3, Q8N448
T3 sequence (Q8N448 463-564, limits assumed, looked up): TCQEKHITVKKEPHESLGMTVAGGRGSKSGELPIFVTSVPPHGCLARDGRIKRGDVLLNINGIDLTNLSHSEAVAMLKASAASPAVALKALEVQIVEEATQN

T4: FRMPD1, Q5SYB0
T4 sequence (Q5SYB0 52-145, limits assumed, looked up): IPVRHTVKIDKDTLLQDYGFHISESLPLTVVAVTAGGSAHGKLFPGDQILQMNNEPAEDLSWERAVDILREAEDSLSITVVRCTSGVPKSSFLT

T5: PDZD2_2, O15018
T5 sequence (O15018 329-429, limits assumed, looked up): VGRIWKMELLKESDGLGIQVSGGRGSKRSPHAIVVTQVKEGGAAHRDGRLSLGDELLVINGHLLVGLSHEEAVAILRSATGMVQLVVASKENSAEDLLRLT

T6: MPDZ_5, O75970
T6 sequence (O75970 695-796, limits assumed, looked up): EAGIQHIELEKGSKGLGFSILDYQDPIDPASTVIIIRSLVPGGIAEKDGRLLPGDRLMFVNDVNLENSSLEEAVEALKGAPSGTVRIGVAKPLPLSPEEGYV

T7: RAPGEF6, Q8TEU7
T7 sequence (Q8TEU7 525-625, limits assumed, looked up): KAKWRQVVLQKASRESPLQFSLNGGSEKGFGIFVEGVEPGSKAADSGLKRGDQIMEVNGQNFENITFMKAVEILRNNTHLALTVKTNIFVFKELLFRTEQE

T8: RHPN1, Q8TCX5
T8 sequence (Q8TCX5 508-602, limits assumed, looked up): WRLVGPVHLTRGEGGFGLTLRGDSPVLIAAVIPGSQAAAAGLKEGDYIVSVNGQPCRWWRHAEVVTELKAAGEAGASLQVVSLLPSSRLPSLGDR

T9: PTPN13_1, Q12923
T9 sequence (Q12923 1088-1188, limits assumed, looked up): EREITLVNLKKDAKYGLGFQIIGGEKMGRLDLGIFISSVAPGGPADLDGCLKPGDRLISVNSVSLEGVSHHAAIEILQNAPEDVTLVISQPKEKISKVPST

T10: GRIP1_2, Q9Y3R0
T10 sequence (Q9Y3R0 145-248, limits assumed, looked up): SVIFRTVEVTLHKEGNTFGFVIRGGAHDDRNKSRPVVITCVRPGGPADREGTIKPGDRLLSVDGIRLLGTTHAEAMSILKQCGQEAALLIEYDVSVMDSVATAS

T11: MPDZ_12, O75970
T11 sequence (O75970 1857-1958, limits assumed, looked up): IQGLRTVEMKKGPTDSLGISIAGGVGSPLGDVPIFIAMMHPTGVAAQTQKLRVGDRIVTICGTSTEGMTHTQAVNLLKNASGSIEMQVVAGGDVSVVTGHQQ

T12: DLG3_3, Q92796
T12 sequence (Q92796 374-475, limits assumed, looked up): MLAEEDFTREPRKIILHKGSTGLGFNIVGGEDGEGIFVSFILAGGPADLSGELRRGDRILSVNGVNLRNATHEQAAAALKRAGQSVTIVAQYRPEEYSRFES

B1: DACT1, Q9NYF0 (peptide)
chain: SGSLKLMTTV
B2: SAPCD1, Q5SSQ6 (peptide)
chain: TKGPRGPTRV
B3: SLC45A4, Q5BKX6 (peptide)
chain: QGPVETESVV
B4: NOSTRIN, Q8IVI9 (peptide)
chain: SNAGNTATKA
B5: SDC4, P31431 (peptide)
chain: KKAPTNEFYA
B6: CLDN2, P57739 (peptide)
chain: FNSYSLTGYV

target: T1, APBA2_1, Q99767; assay: holdup assay; design: key: below the threshold = too weak to quantify, mostly under pKd 3.1 to 4; details: plain residues with an end cap or a label only (N-terminal biotin on a linker: ado-ado)

pKd	Binder
below the threshold	B1
below the threshold	B2
below the threshold	B3
below the threshold	B4
below the threshold	B5
below the threshold	B6

target: T2, DFNB31_3, Q9P202; assay: holdup assay; design: key: below the threshold = too weak to quantify, mostly under pKd 3.1 to 4; details: plain residues with an end cap or a label only (N-terminal biotin on a linker: ado-ado)

pKd	Binder
4.03	B1
below the threshold	B2
below the threshold	B3
below the threshold	B4
3.85	B5
below the threshold	B6

target: FRMPD2_3, Q68DX3; assay: holdup assay; design: key: below the threshold = too weak to quantify, mostly under pKd 3.1 to 4; details: plain residues with an end cap or a label only (N-terminal biotin on a linker: ado-ado)
Sequence (Q68DX3 1073-1166): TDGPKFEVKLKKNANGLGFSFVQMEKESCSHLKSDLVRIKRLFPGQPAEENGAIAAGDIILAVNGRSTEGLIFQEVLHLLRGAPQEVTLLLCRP

pKd	Binder
below the threshold	B1
below the threshold	B2
3.54	B3
below the threshold	B4
below the threshold	B5
4.28	B6

target: T3, LNX2_3, Q8N448; assay: holdup assay; design: key: below the threshold = too weak to quantify, mostly under pKd 3.1 to 4; details: plain residues with an end cap or a label only (N-terminal biotin on a linker: ado-ado)

pKd	Binder
below the threshold	B1
below the threshold	B2
below the threshold	B3
below the threshold	B4
below the threshold	B5
below the threshold	B6

target: T4, FRMPD1, Q5SYB0; assay: holdup assay; design: key: below the threshold = too weak to quantify, mostly under pKd 3.1 to 4; details: plain residues with an end cap or a label only (N-terminal biotin on a linker: ado-ado)

pKd	Binder
below the threshold	B1
below the threshold	B2
below the threshold	B3
below the threshold	B4
below the threshold	B5
below the threshold	B6

target: T5, PDZD2_2, O15018; assay: holdup assay; design: key: below the threshold = too weak to quantify, mostly under pKd 3.1 to 4; details: plain residues with an end cap or a label only (N-terminal biotin on a linker: ado-ado)

pKd	Binder
3.92	B1
3.88	B2
5.27	B3
below the threshold	B4
below the threshold	B5
4.65	B6

target: DLG2_2, Q15700; assay: holdup assay; design: key: below the threshold = too weak to quantify, mostly under pKd 3.1 to 4; details: plain residues with an end cap or a label only (N-terminal biotin on a linker: ado-ado)
Sequence (Q15700 189-283): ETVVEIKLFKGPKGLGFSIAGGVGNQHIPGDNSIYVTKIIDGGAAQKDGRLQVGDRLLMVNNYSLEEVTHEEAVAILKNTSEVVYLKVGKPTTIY

pKd	Binder
5.24	B1
4.38	B2
4.45	B3
below the threshold	B4
below the threshold	B5
below the threshold	B6

target: Inadl_8, Q8NI35; assay: holdup assay; design: key: below the threshold = too weak to quantify, mostly under pKd 3.1 to 4; details: plain residues with an end cap or a label only (N-terminal biotin on a linker: ado-ado)
Sequence (Q8NI35 1425-1530): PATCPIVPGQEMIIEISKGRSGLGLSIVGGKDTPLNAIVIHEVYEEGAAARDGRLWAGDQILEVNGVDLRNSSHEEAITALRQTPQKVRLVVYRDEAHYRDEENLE

pKd	Binder
4.09	B1
5.64	B2
3.7	B3
below the threshold	B4
below the threshold	B5
4.27	B6

target: T6, MPDZ_5, O75970; assay: holdup assay; design: key: below the threshold = too weak to quantify, mostly under pKd 3.1 to 4; details: plain residues with an end cap or a label only (N-terminal biotin on a linker: ado-ado)

pKd	Binder
below the threshold	B1
below the threshold	B2
below the threshold	B3
below the threshold	B4
below the threshold	B5
below the threshold	B6

target: HTRA2, O43464; assay: holdup assay; design: key: below the threshold = too weak to quantify, mostly under pKd 3.1 to 4; details: plain residues with an end cap or a label only (N-terminal biotin on a linker: ado-ado)
Sequence (O43464 355-458): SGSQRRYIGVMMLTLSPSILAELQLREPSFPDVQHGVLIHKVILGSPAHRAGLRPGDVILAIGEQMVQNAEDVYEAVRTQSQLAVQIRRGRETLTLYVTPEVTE

pKd	Binder
below the threshold	B1
below the threshold	B2
below the threshold	B3
below the threshold	B4
below the threshold	B5
4.48	B6

target: LNX1_2, Q8TBB1; assay: holdup assay; design: key: below the threshold = too weak to quantify, mostly under pKd 3.1 to 4; details: plain residues with an end cap or a label only (N-terminal biotin on a linker: ado-ado)
Sequence (Q8TBB1 371-470): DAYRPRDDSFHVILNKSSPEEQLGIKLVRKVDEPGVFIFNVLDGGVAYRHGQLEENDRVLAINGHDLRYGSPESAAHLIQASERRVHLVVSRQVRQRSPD

pKd	Binder
3.84	B1
below the threshold	B2
below the threshold	B3
below the threshold	B4
below the threshold	B5
4.19	B6

target: NOS1, P29475; assay: holdup assay; design: key: below the threshold = too weak to quantify, mostly under pKd 3.1 to 4; details: plain residues with an end cap or a label only (N-terminal biotin on a linker: ado-ado)
Sequence (P29475 9-101): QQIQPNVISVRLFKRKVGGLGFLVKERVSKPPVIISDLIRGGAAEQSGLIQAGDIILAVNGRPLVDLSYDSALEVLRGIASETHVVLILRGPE

pKd	Binder
below the threshold	B1
4.2	B2
3.85	B3
below the threshold	B4
below the threshold	B5
below the threshold	B6

target: T7, RAPGEF6, Q8TEU7; assay: holdup assay; design: key: below the threshold = too weak to quantify, mostly under pKd 3.1 to 4; details: plain residues with an end cap or a label only (N-terminal biotin on a linker: ado-ado)

pKd	Binder
below the threshold	B1
below the threshold	B2
below the threshold	B3
below the threshold	B4
below the threshold	B5
below the threshold	B6

target: GRIP2_3, Q9C0E4; assay: holdup assay; design: key: below the threshold = too weak to quantify, mostly under pKd 3.1 to 4; details: plain residues with an end cap or a label only (N-terminal biotin on a linker: ado-ado)
Sequence (Q9C0E4 238-339): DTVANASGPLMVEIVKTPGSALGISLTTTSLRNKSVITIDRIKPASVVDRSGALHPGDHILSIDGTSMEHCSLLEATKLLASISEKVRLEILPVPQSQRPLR

pKd	Binder
below the threshold	B1
below the threshold	B2
below the threshold	B3
below the threshold	B4
below the threshold	B5
below the threshold	B6

target: SNX27, Q96L92; assay: holdup assay; design: key: below the threshold = too weak to quantify, mostly under pKd 3.1 to 4; details: plain residues with an end cap or a label only (N-terminal biotin on a linker: ado-ado)

pKd	Binder
4.35	B1
4	B2
5.73	B3
below the threshold	B4
below the threshold	B5
4.06	B6

target: T8, RHPN1, Q8TCX5; assay: holdup assay; design: key: below the threshold = too weak to quantify, mostly under pKd 3.1 to 4; details: plain residues with an end cap or a label only (N-terminal biotin on a linker: ado-ado)

pKd	Binder
4.58	B1
below the threshold	B2
4.47	B3
below the threshold	B4
below the threshold	B5
below the threshold	B6

target: T9, PTPN13_1, Q12923; assay: holdup assay; design: key: below the threshold = too weak to quantify, mostly under pKd 3.1 to 4; details: plain residues with an end cap or a label only (N-terminal biotin on a linker: ado-ado)

pKd	Binder
below the threshold	B1
below the threshold	B2
below the threshold	B3
below the threshold	B4
below the threshold	B5
below the threshold	B6

target: GRIP2_7, Q9C0E4; assay: holdup assay; design: key: below the threshold = too weak to quantify, mostly under pKd 3.1 to 4; details: plain residues with an end cap or a label only (N-terminal biotin on a linker: ado-ado)
Sequence (Q9C0E4 934-1023): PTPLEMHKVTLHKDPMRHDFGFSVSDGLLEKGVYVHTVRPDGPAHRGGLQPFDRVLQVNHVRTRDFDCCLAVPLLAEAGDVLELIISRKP

pKd	Binder
below the threshold	B1
below the threshold	B2
below the threshold	B3
below the threshold	B4
below the threshold	B5
below the threshold	B6

target: T10, GRIP1_2, Q9Y3R0; assay: holdup assay; design: key: below the threshold = too weak to quantify, mostly under pKd 3.1 to 4; details: plain residues with an end cap or a label only (N-terminal biotin on a linker: ado-ado)

pKd	Binder
below the threshold	B1
below the threshold	B2
below the threshold	B3
below the threshold	B4
below the threshold	B5
below the threshold	B6

target: AHNAK1, Q09666; assay: holdup assay; design: key: below the threshold = too weak to quantify, mostly under pKd 3.1 to 4; details: plain residues with an end cap or a label only (N-terminal biotin on a linker: ado-ado)
Sequence (Q09666 4-100): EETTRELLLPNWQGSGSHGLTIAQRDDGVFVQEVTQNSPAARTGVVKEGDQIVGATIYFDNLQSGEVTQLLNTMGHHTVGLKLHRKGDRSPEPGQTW

pKd	Binder
below the threshold	B1
below the threshold	B2
below the threshold	B3
below the threshold	B4
below the threshold	B5
below the threshold	B6

target: T11, MPDZ_12, O75970; assay: holdup assay; design: key: below the threshold = too weak to quantify, mostly under pKd 3.1 to 4; details: plain residues with an end cap or a label only (N-terminal biotin on a linker: ado-ado)

pKd	Binder
3.77	B1
below the threshold	B2
3.5	B3
below the threshold	B4
below the threshold	B5
below the threshold	B6

target: NHERF4_1, Q86UT5-2; assay: holdup assay; design: key: below the threshold = too weak to quantify, mostly under pKd 3.1 to 4; details: plain residues with an end cap or a label only (N-terminal biotin on a linker: ado-ado)
Sequence (Q86UT5 other isoform, or with tags, fused parts or gaps): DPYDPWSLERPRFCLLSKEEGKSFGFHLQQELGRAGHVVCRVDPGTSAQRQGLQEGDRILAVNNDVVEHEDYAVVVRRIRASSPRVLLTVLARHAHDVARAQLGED

pKd	Binder
below the threshold	B1
below the threshold	B2
3.48	B3
below the threshold	B4
below the threshold	B5
3.9	B6

target: T12, DLG3_3, Q92796; assay: holdup assay; design: key: below the threshold = too weak to quantify, mostly under pKd 3.1 to 4; details: plain residues with an end cap or a label only (N-terminal biotin on a linker: ado-ado)

pKd	Binder
4.2	B1
4.44	B2
below the threshold	B3
below the threshold	B4
below the threshold	B5
below the threshold	B6

target: MAGI2_2, Q86UL8; assay: holdup assay; design: key: below the threshold = too weak to quantify, mostly under pKd 3.1 to 4; details: plain residues with an end cap or a label only (N-terminal biotin on a linker: ado-ado)
Sequence (Q86UL8 410-522): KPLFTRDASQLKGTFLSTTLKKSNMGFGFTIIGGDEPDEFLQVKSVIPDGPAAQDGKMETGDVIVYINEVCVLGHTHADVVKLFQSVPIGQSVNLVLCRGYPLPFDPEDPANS

pKd	Binder
5.28	B1
5.42	B2
3.78	B3
3.56	B4
below the threshold	B5
3.67	B6
